Source: the supplement of paper PMC10567573

B1: ZBED1 (parent)
chain: EQVFSLGDGVSGGFFGIRDSSFL

Variants of: B1
Assay: protein stability index of a GFP-peptide fusion (GPS, HEK-293T) (PSI 1-6); higher = more stable
Conditions: c terminus: native
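Further: lentivirally expressed fusions sorted by FACS into six bins by GFP to DsRed ratio, PSI derived from sequencing read proportions per bin multiplied by bin number.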

Protein stability index of substitutions, site by site:
V10: N 3.8; T 3.78; A 3.87; F 2.75; R 4.32; E 3.62; M 2.57; H 3.55; Q 3.92; P 3.86; K 3.6; W 2.61; S 4.03; I 2.92; Y 3.38; D 3.78; L 3; C 3.35; G 3.89
F15: C 3.64; G 3.85; Y 3.52; S 4.43; T 4.08; A 4.32; K 4.1; R 4.13; V 3.65; P 4.25; L 3.7; I 3.67; M 3.82; N 4.21; E 3.78; Q 4.63; W 2.88; H 4.11; D 4.15
F14: G 4.44; W 3.44; H 4.24; S 3.71; T 4.12; A 3.82; C 4.21; Q 4.45; D 4.16; V 3; N 4.62; M 3.74; R 4; P 4.08; Y 3.18; K 4.3; E 4.11; L 3.67; I 3.21
S21: N 3.62; W 2.59; G 3.84; F 2.61; Y 2.66; T 3.33; I 2.25; C 2.77; H 3.46; L 2.5; V 1.74; Q 3.48; K 4.02; E 3.67; R 3.61; M 2.54; A 3; D 4.08; P 3.4
G9: A 3.15; D 4; Q 3.16; R 2.86; L 2.01; T 3.1; V 3.09; E 3.25; N 3.46; K 2.99; C 2.32; S 3.27; M 2.9; W 1.51; I 2.47; H 3.48; P 3.29; F 2.55; Y 2.51
D19: N 2.75; V 2.65; A 1.3; K 3.4; Y 2.57; I 1.82; F 3.4; R 2.78; E 2.92; Q 2.15; C 2.26; G 2.87; T 1.85; P 2.15; S 1.68; L 2.1; H 2.19; M 1.77
F22: D 4.06; A 4.15; C 3.39
S20: D 3.71; E 3.91; Y 2.96; T 3.22; C 1.96; N 3.7; Q 3.7; H 2.76; A 3.1; G 3.22; F 2.39; V 2.63; M 2.49; L 2.5; I 2.42; W 2.35; K 3.53; P 3.73; R 3.21
G12: K 3.52; W 1.72; Q 3.52; I 1.42; L 2.3; V 2.45; E 4.06; F 2.01; S 3.55; Y 2.05; P 3.5; M 2.88; H 3.01; N 3.6; R 2.92; C 2.49; A 3.41; D 4.06; T 3.28
G13: Q 3.48; Y 2.04; T 3.17; H 3.41; E 4.08; F 1.98; P 3.49; S 3.49; I 1.99; R 2.96; D 3.73; C 3.08; W 1.82; M 2.2; V 2.22; L 2.23; K 3.08; A 3.28; N 3.58
G16: T 2.77; D 3.77; I 1.57; L 2.8; C 1.84; F 1.91; E 2.83; V 1.85; Y 2.29; N 3.46; R 3.14; W 1.76; K 3.29; S 2.05; P 2.85; Q 2.93; H 3.56; M 2.17; A 2.62
S11: M 2.81; Q 3.05; W 2.39; R 2.89; C 2.48; P 2.76; A 3.73; G 3.26; N 3.63; Y 2.17; K 3.11; H 3.15; V 2.9; E 4.02; D 4.01; I 2; L 3.09; F 2.35; T 3.18
G7: R 2.94; C 2.61; L 2.18; T 3.23; I 1.9; Y 2.34; D 4.29; F 1.99; Q 3.46; P 3.51; W 1.7; M 2.52; S 2.94; K 3.16; N 3.28; V 2.19; H 3.34; E 3.84; A 2.98
R18: M 2.71; V 2.14; F 2.07; E 3.93; S 3.65; D 3.98; W 2.21; K 3.96; A 2.92; C 1.98; N 3.9; Y 2.49; T 3.32; G 3.42; I 2.26; L 2.78; P 3.28; Q 3.38; H 2.62
D8: R 2.61; P 2.73; W 1.91; Q 2.73; K 2.69; G 3.24; C 2.07; N 2.88; S 3.22; E 3.04; L 1.99; M 1.47; Y 2.01; T 2.91; F 1.61; H 2.73; V 1.57; I 1.41; A 2.7
S5: H 3.36; Y 2.63; W 1.83; G 3.27; V 2.44; P 3.2; L 2.24; T 3.51; E 3.81; K 3.31; R 3.29; D 3.74; A 2.98; Q 3.34; I 2.16; N 3.96; F 1.75; M 2.67; C 2.6
L6: S 4.12; M 3.2; P 3.96; F 3.22; Y 3.42; T 3.27; V 3.08; G 4.31; A 3.92; Q 3.5; D 3.73; I 3.14; R 4.26; W 3.01; C 3.76; N 3.4; E 4.69; K 3.86; H 3.97
F4: W 3.08; S 4.29; R 4.16; Y 3.47; V 3.85; N 4.11; Q 4.12; T 3.75; P 4.11
I17: D 4.55; N 4.02; T 4.3; V 3.87; Y 3.28; M 3.75; Q 4.31; S 4.2; R 4.2; L 3.68; A 4.37; E 4.71; F 3.42; H 4.03; C 3.76; K 3.8; G 4.17; W 3.52; P 4
